Experimental data reported in patent publication US20210393745A1, “OLIGOMER EXTENDED INSULIN-FC CONJUGATES AND THEIR MEDICAL USE” (Novo Nordisk A/S, priority 2018, published 2021).

B1: (A14E, A21G, A22(GQEP)12, A70K^, A71P, B25H, B29R, desB30 human insulin)/(226A, 227G, 228P, 234A, 235K, 297E, 315Q, 384Q, des447 … (other)
chain 1: GIVEQCCTSICSLEQLENYCGGQEPGQEPGQEPGQEPGQEPGQEPGQEPGQEPGQEPGQEPGQEPGQEPKP
chain 2: FVNQHLCGSHLVEALYLVCGERGFHYTPR
chain 3: AGPCPAPEAKGGPSVFLFPPKPKDTLMISRTPEVTCVVVDVSQEDPEVQFNWYVDGVEVHNAKTKPREEQFESTYRVVSVLTVLHQDWLQGKEYKCKVSNKGLPSSIEKTISKAKGQPREPQVYTLPPSQEEMTKNQVSLTCLVKGFYPSDIAVEWESQGQPENNYKTTPPVLDSDGSFFLYSRLTVDKSRWQEGNVFSCSVMHEALHNHYTQKSLSLSLG
modifications: epsilon amino group of Lys A70 (A70K) carries the trivalent linker 3,5-bis[(2-acetyl)amino]benzoyl, which bridges to Cys229 of both Fc polypeptides; ; thiol of Cys229 (EU numbering) linked to -C(O)-CH2- of the linker; aglycosylated (made in E. coli)
B2: (A14E, A21G, A22(GQEP)11, A66G, A67Q, A68E, A69K^, A70P, B16H, B25H, B29R, desB30 human insulin)/(226A, 227G, 228P, 234A, 235K, 297E, 315Q, 384Q, des447 … (other)
chain 1: GIVEQCCTSICSLEQLENYCGGQEPGQEPGQEPGQEPGQEPGQEPGQEPGQEPGQEPGQEPGQEPGQEKP
chain 2: FVNQHLCGSHLVEALHLVCGERGFHYTPR
chain 3: B1 chain 3
modifications: epsilon amino group of Lys A69 (A69K) carries the trivalent linker 3,5-bis[(2-acetyl)amino]benzoyl, which bridges to Cys229 of both Fc polypeptides; ; thiol of Cys229 (EU numbering) linked to -C(O)-CH2- of the linker; aglycosylated (made in E. coli)
B3: (A14E, A21G, A22(GQEP)11, A66G, A67Q, A68E, A69K^, A70P, B16E, B25H, B29R, desB30 human insulin)/(226A, 227G, 228P, 234A, 235K, 297E, 315Q, 384Q, des447 … (other)
chain 1: B2 chain 1
chain 2: FVNQHLCGSHLVEALELVCGERGFHYTPR
chain 3: B1 chain 3
modifications: epsilon amino group of Lys A69 (A69K) carries the trivalent linker 3,5-bis[(2-acetyl)amino]benzoyl, which bridges to Cys229 of both Fc polypeptides; ; thiol of Cys229 (EU numbering) linked to -C(O)-CH2- of the linker; aglycosylated (made in E. coli)

Columns and labels:
[1] = target: human insulin receptor isotype B (human) (UniProt P06213); experiment: SPA competition with [125I-A14Y]-human insulin, membrane-associated human IR-B; relative to human insulin standard
[2] = target: T1, human insulin receptor isotype A (human, UniProt P06213-2); experiment: SPA competition with [125I-A14Y]-human insulin, solubilised human IR-A; relative to human insulin (100%)
[3] = target: T1, human insulin receptor isotype A; experiment: SPA competition with [125I-A14Y]-human insulin, membrane-associated human IR-A; relative to human insulin standard
Protocol: (§1) Membrane-associated human IR and IGF-1R are purified from BHK cells stably transfected with the pZem219B vector containing either the human IR-A, IR-B or IGF-IR insert. BHK cells are harvested and homogenized in ice-cold buffer (25 mM HEPES pH 7.4, 25 mM CaCl₂ and 1 mM MgCl₂, 250 mg/L bacitracin, 0.1 mM Pefablock). The homogenates are layered on a 41% (w/v) sucrose cushion and centrifuged for 75 minutes at 95000 g at 4° C. The plasma membranes are collected, diluted 1:5 with buffer (as above) and centrifuged again for 45 minutes at 40000 g at 4° C. The pellets are resuspended in a minimal volume of buffer and drawn through a needle (size 23) three times before storage at −80° C. until usage. The relative binding affinity for either of the membrane-associated human IR-A, IR-B or IGF-1R is determined by competition binding in a SPA setup. IR assays are performed in duplicate in 96-well OptiPlates (Perkin-Elmer Life Sciences). Membrane protein is incubated with gentle agitation for 150 minutes at 25° C. with 50 pM [¹²⁵IA14Y]-human insulin in a total volume of […] assay buffer (50 mM HEPES, 150 mM NaCl, 5 mM MgSO4, 0.01% Triton X-100, 0.1% (w/v) HSA (Sigma A1887), Complete EDTA-free protease inhibitors), 50 μg of wheat germ agglutinate (WGA)-coated PVT microspheres (GE Healthcare) and increasing concentrations of ligand. Assays are terminated by centrifugation of the plate at 2000 rpm for 2 minutes and bound radioactivity quantified by counting on a TopCount NXT (Perkin-Elmer Life Sciences).
(§2) IGF-1R assays are conducted essentially as for the IR binding assays except that membrane-associated IGF-1R and 50 pM [¹²⁵I-Tyr31]-human IGF-1 were employed.

[4] = target: human insulin-like growth factor-1 receptor (human, UniProt P08069); experiment: SPA competition with [125I-Tyr31]-human IGF-1, membrane-associated human IGF-1R; relative to human insulin standard
Protocol: as §1, §2

hFcRn ectodomain = hFcRn ectodomain (human, UniProt P55899); experiment: SPR (Biacore 4000), conjugate immobilised by amine coupling, hFcRn ectodomain as analyte, pH 6.0, 25 C, steady-state fit

Row | Molecule | Rel. aff. (%) [1] [%] | Insulin receptor affinity [IC50 relative to HI (%)] [2] [%] | Rel. aff. (%) [3] [%] | Rel. aff. (%) [4] [%] | Kd (hFcRn ectodomain) [nM]
1 | (A14E, A21G, A22(GQEP)12, A70K^, A71P, B25H, B29R, desB30 human insulin)/(226A, 227G, 228P, 234A, 235K, 297E, 315Q, 384Q, des447 hIgG4-Fc(226-447))3,5-bis[(2-acetyl)amino]benzoyl conjugate | 3.05 | – | – | – | –
2 | (A14E, A21G, A22(GQEP)11, A66G, A67Q, A68E, A69K^, A70P, B16H, B25H, B29R, desB30 human insulin)/(226A, 227G, 228P, 234A, 235K, 297E, 315Q, 384Q, des447 hIgG4-Fc(226-447))3,5-bis[(2-acetyl)amino]benzoyl conjugate | 1.26 | – | – | – | –
3 | (A14E, A21G, A22(GQEP)11, A66G, A67Q, A68E, A69K^, A70P, B16E, B25H, B29R, desB30 human insulin)/(226A, 227G, 228P, 234A, 235K, 297E, 315Q, 384Q, des447 hIgG4-Fc(226-447))3,5-bis[(2-acetyl)amino]benzoyl conjugate | 0.59 | – | – | – | –
4 | B1 | – | 4.5 | 2.97 | 0.91 | 1500
5 | B2 | – | 1.6 | 1.27 | 0.1 | 1600
6 | B3 | – | 0.4 | 0.66 | 0.29 | 1500
